{"source": "the supplement of paper PMC12042874", "note": "± gives the uncertainty stated by the source.", "data": [{"experiment": "amyloid nucleation score (Sup35N fusion, yeast selection) (log enrichment); library NNK1; higher = more nucleation; inactive = no reads after selection", "method_in_brief": "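Yeast lacking psi expressed peptides of 20 random codons fused to Sup35N, received 100 μM copper sulfate for 24 hours, and were then grown for 7 days at 30°C on medium lacking adenine and uracil. Illumina sequencing of input and output plasmid inserts provided the reads. Nucleation scores are DiMSum log enrichments of output over input, centred on the mode of non-aggregating sequences. Any sequence with under 100 input reads was excluded.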", "values": [{"substance": "YCIYVGFDLMCLSVWNGHRS", "amyloid nucleation score": "-1.39 ± 0.66"}, {"substance": "VSMATAVF", "amyloid nucleation score": "1.22 ± 0.64"}, {"substance": "PVFGGNGWLGYGWNWRSHLG", "amyloid nucleation score": "0.383 ± 0.49"}, {"substance": "FCVWIGKEGD", "amyloid nucleation score": "0.442 ± 0.51"}, {"substance": "RYRWRL", "amyloid nucleation score": "inactive"}, {"substance": "MDAFPEFLGVVFHSDDFGVP", "amyloid nucleation score": "-0.209 ± 0.39"}, {"substance": "KAVRMSNFD", "amyloid nucleation score": "0.223 ± 0.71"}, {"substance": "VGCADEMVPMEFMCWLGIIF", "amyloid nucleation score": "-0.909 ± 2.7"}, {"substance": "FMSYFVPSQQYLTASSRQKT", "amyloid nucleation score": "-0.544 ± 1.1"}, {"substance": "WCLESINFRRMCMASSG", "amyloid nucleation score": "0.893 ± 0.41"}, {"substance": "FSNAIKQVFQGYLWTNPW", "amyloid nucleation score": "-0.188 ± 0.3"}, {"substance": "VWLRIM", "amyloid nucleation score": "-0.957 ± 2.4"}, {"substance": "CEMMDNPFLLLRVKGSKVRS", "amyloid nucleation score": "inactive"}, {"substance": "AGNCRDW", "amyloid nucleation score": "-0.857 ± 0.66"}, {"substance": "CLYAIKLCM", "amyloid nucleation score": "6.82 ± 0.043"}, {"substance": "PTFAADSEGHS", "amyloid nucleation score": "0.085 ± 0.63"}, {"substance": "GILLRH", "amyloid nucleation score": "-0.742 ± 1.2"}, {"substance": "ACWFMCFYRFPAAWY", "amyloid nucleation score": "0.079 ± 0.3"}, {"substance": "LGRSWWYYSQLWDSRHLSF", "amyloid nucleation score": "-0.38 ± 1.5"}, {"substance": "NHFFCGLGNYLSAVFIVIRK", "amyloid nucleation score": "-0.159 ± 1.4"}, {"substance": "PIHDLRKLIYVTPEFYWGFY", "amyloid nucleation score": "0.561 ± 0.48"}, {"substance": "ALDIFTNTKSVIGYVGIGKC", "amyloid nucleation score": "0.194 ± 0.52"}, {"substance": "LGAQGLFVYSLLCQT", "amyloid nucleation score": "-0.126 ± 0.68"}, {"substance": "KLEMARAIKFFGYDTLETAF", "amyloid nucleation score": "1.1 ± 0.71"}, {"substance": "SMIGRSCYEV", "amyloid nucleation score": "inactive"}, {"substance": "LLKSKGGLPILRPCWLPFWQ", "amyloid nucleation score": "0.066 ± 0.75"}, {"substance": "GNTWNIMFNICCLQGIECCL", "amyloid nucleation score": "7.349 ± 0.051"}, {"substance": "TVVHPFSYA", "amyloid nucleation score": "0.487 ± 0.49"}, {"substance": "YKSVRSVVWWCLRNSLHFVW", "amyloid nucleation score": "1.91 ± 0.6"}, {"substance": "LGQLFHGGCD", "amyloid nucleation score": "0.3 ± 0.43"}, {"substance": "HRNRFYVVLYRNLDLWL", "amyloid nucleation score": "-0.197 ± 0.23"}, {"substance": "LVNYLICWT", "amyloid nucleation score": "-0.078 ± 0.82"}, {"substance": "ESSGTFFP", "amyloid nucleation score": "-0.186 ± 0.9"}, {"substance": "WRICLQCRAYPLRTTGGQRQ", "amyloid nucleation score": "0.444 ± 0.69"}, {"substance": "VPCLVRA", "amyloid nucleation score": "0.506 ± 0.99"}, {"substance": "YLAWNM", "amyloid nucleation score": "1.8 ± 0.34"}, {"substance": "WSCCAEERVTWGPAEMLLWG", "amyloid nucleation score": "-1.05 ± 2.7"}, {"substance": "TSNHML", "amyloid nucleation score": "0.226 ± 0.61"}, {"substance": "NDFLNSFLCPYYIIPDTGRI", "amyloid nucleation score": "-1.04 ± 0.44"}, {"substance": "CTAWNVS", "amyloid nucleation score": "-0.657 ± 1.7"}, {"substance": "DCYNLKQWRSCCDLAVASGG", "amyloid nucleation score": "0.24 ± 0.88"}, {"substance": "SYYDSQYGLYGESVCL", "amyloid nucleation score": "0.738 ± 0.72"}, {"substance": "IMSKRTWWLRPRGPTACFQW", "amyloid nucleation score": "0.208 ± 0.44"}, {"substance": "KTCYTVFSRPYENWS", "amyloid nucleation score": "0.625 ± 0.48"}, {"substance": "TGNGRDVLHSSALKVPNRR", "amyloid nucleation score": "0.715 ± 0.43"}, {"substance": "VSFNCTNGFRIKHVLWSTDN", "amyloid nucleation score": "1.09 ± 0.17"}, {"substance": "WWYYNRRWLVTCKSVYGLGM", "amyloid nucleation score": "-0.34 ± 0.37"}, {"substance": "IVNNIVCSAGVDPFSQHCMD", "amyloid nucleation score": "1.84 ± 0.67"}, {"substance": "KPDSMFDFER", "amyloid nucleation score": "-0.675 ± 1.3"}, {"substance": "VAFWFVLGWKGSLYYKGLAD", "amyloid nucleation score": "0.334 ± 1.1"}, {"substance": "ILILRGNCR", "amyloid nucleation score": "-0.165 ± 0.73"}, {"substance": "FYCPRIKNVFSEICIC", "amyloid nucleation score": "3.79 ± 0.1"}, {"substance": "WNIRRIRSDTRTLFKCNL", "amyloid nucleation score": "0.636 ± 0.32"}, {"substance": "VPYVISINSMVWVGHRPVLP", "amyloid nucleation score": "6.132 ± 0.057"}, {"substance": "FRIRRGKRSVHTVNFAFAEV", "amyloid nucleation score": "0.583 ± 0.8"}, {"substance": "SLTTHSAGHPLYIHVFNVLV", "amyloid nucleation score": "0.147 ± 0.35"}, {"substance": "YTRMICGSMMGGVMREMRIM", "amyloid nucleation score": "0.739 ± 0.36"}, {"substance": "VCYCLKWEAMSVKLLCMGCA", "amyloid nucleation score": "-0.688 ± 0.6"}, {"substance": "RSYSSLSR", "amyloid nucleation score": "0.792 ± 0.58"}, {"substance": "QIYASKWPYEIEFKNFMRVA", "amyloid nucleation score": "0.247 ± 0.42"}, {"substance": "LDNIMVCNYAE", "amyloid nucleation score": "inactive"}, {"substance": "ASAFFRVWSLNKIICYEVSD", "amyloid nucleation score": "4.56 ± 0.051"}, {"substance": "VTYNGYVG", "amyloid nucleation score": "-0.205 ± 0.58"}, {"substance": "SYGHLRAFFEDCSH", "amyloid nucleation score": "-0.145 ± 0.51"}, {"substance": "NNVNEVWWA", "amyloid nucleation score": "0.249 ± 0.69"}, {"substance": "NPNMVSRPCRVGRRPFDVGL", "amyloid nucleation score": "-0.022 ± 0.45"}, {"substance": "SSWSFHARWRVRAISCACN", "amyloid nucleation score": "-0.062 ± 0.51"}, {"substance": "EMALKVVMWC", "amyloid nucleation score": "inactive"}, {"substance": "NGIMKIEKYG", "amyloid nucleation score": "0.312 ± 0.79"}, {"substance": "SGLLVITFVNEFLYKNVYPL", "amyloid nucleation score": "1.95 ± 0.25"}, {"substance": "ILILNGLGGHVFARWYVACT", "amyloid nucleation score": "0.002 ± 0.75"}, {"substance": "LRKSHYFTY", "amyloid nucleation score": "-0.429 ± 0.58"}, {"substance": "VFSMC", "amyloid nucleation score": "inactive"}, {"substance": "YRSSGWRNTSSRAVLCCLDE", "amyloid nucleation score": "-0.356 ± 0.38"}, {"substance": "MCSKWDFQVLSHTDSWVWV", "amyloid nucleation score": "-0.67 ± 0.5"}, {"substance": "GLCMEYTVWWVWSWITLRVD", "amyloid nucleation score": "-0.294 ± 0.26"}, {"substance": "RRWFYLGAFVYKSNTIDVGV", "amyloid nucleation score": "-0.214 ± 0.35"}, {"substance": "CLDNWLGGHNSLSSYSG", "amyloid nucleation score": "0.538 ± 0.37"}, {"substance": "ESSNSLL", "amyloid nucleation score": "-0.244 ± 0.4"}, {"substance": "WTSIV", "amyloid nucleation score": "1.38 ± 0.47"}, {"substance": "CLVYSTYIDGQTLAKTF", "amyloid nucleation score": "-0.761 ± 1.2"}, {"substance": "ISLRYFPNYISFHKLGFRSA", "amyloid nucleation score": "0.523 ± 0.39"}, {"substance": "IEAYVINGKLDWALWFRGDE", "amyloid nucleation score": "-0.407 ± 0.85"}, {"substance": "VGCFLIKSGEQ", "amyloid nucleation score": "-0.385 ± 0.36"}, {"substance": "VRYFCTFLWWSTIRQAQYNI", "amyloid nucleation score": "0.218 ± 0.78"}, {"substance": "ICQRSRAGSGSEVLT", "amyloid nucleation score": "-0.205 ± 0.49"}, {"substance": "YELTRIR", "amyloid nucleation score": "2.38 ± 0.17"}]}]}
